The record followed here is patent US6063627.

This data set has as its system Cre recombinase (Bacteriophage P1). Kind of data set: cell_activity. As to conditions: cotransfection with Cre-expressing plasmid.

On to Lox sites in pEOBglugl, for which the activity (log induction of beta-glucuronidase) was above 3.
